Experimental findings from paper PMC11538506 are described below.

This series deals with DDX3X WT (MBP) (UniProt O00571 1-662). In words: time-resolved fluorescence anisotropy. For orientation: Polarisation of emitted light reports the rotation of a fluorescent probe.
Sequence of DDX3X WT (MBP) (O00571 whole entry): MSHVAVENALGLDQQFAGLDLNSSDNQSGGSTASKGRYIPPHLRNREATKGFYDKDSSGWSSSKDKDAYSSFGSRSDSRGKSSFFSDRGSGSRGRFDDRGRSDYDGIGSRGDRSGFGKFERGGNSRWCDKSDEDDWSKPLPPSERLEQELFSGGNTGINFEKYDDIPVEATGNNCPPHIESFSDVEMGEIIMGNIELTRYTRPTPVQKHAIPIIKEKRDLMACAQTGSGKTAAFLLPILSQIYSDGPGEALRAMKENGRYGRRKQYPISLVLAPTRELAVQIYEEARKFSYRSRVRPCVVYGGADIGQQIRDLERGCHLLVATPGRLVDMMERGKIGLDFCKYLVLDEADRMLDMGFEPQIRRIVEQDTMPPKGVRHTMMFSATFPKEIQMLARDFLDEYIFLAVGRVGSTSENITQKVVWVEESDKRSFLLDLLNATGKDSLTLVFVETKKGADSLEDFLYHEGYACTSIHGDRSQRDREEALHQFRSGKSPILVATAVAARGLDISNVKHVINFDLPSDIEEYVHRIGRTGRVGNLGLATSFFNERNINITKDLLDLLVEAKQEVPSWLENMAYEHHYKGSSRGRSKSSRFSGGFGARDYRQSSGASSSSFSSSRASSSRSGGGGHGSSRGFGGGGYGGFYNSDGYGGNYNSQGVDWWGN

B1: dsRNA anisotropy probe (18/42-mer) (dsRNA)
RNA 1: ACCGCUGCCGUCGCUCCG
RNA 2: UUUUUUUUUUUUUUUUUUUUUUUUCGGAGCGACGGCAGCGGU
Turning to B1, the binding result is on record as “binds”.
